The record followed here is patent US8119594B1, “Method of modulating integrin mediated cellular activity and agents useful for same” (Inter-K Pty Limited, priority 1999, dated 2012).

The assay deals with β6-bound ERK. Description: β6 immunoprecipitation and ERK Western blot in transfected SW480 cells. In kind it is cell-based, human. The settings on record: SW480 transfectants; mAb R6G9 immunoprecipitates probed with E10; FIG. 27(B). From the text: Construction of the β6 Δ746-764 (SEQ ID NO. 19) deletion mutant in the vector pcDNA1neo and failure of the expressed receptor to localise to focal adhesions in Chinese hamster ovary cells has been reported (Cone et al, 1994).
Equal protein loads of cell lysates prepared from SW480 cells were immunoprecipitated with either anti-β6 monoclonal antibody (mAb R6G9) or matched isotype control antibody.
For orientation: A western blot detects proteins with antibodies after separation by electrophoresis.

B1: β6 Δ746-764 deletion mutant: β6 subunit expressed from a deletion construct lacking the coding sequence for … (protein)
chain: WLCLGGAETCEDCLLIGPQCAWCAQENFTHPSGVGERCDTPANLLAKGCQLNFIENPVSQVEILKNKPLSVGRQKNSSDIVQIAPQSLILKLRPGGAQTLQVHVRQTEDYPVDLYYLMDLSASMDDDLNTIKELGSGLSKEMSKLTSNFRLGFGSFVEKPVSPFVKTTPEEIANPCSSIPYFCLPTFGFKHILPLTNDAERFNEIVKNQKISANIDTPEGGFDAIMQAAVCKEKIGWRNDSLHLLVFVSDADSHFGMDSKLAGIVIPNDGLCHLDSKNEYSMSTVLEYPTIGQLIDKLVQNNVLLIFAVTQEQVHLYENYAKLIPGATVGLLQKDSGNILQLIISAYEELRSEVELEVLGDTEGLNLSFTAICNNGTLFQHQKKCSHMKVGDTASFSVTVNIPHCERRSRHIIIKPVGLGDALELLVSPECNCDCQKEVEVNSSKCHHGNGSFQCGVCACHPGHMGPRCECGEDMLSTDSCKEAPDHPSCSGRGDCYCGQCICHLSPYGNIYGPYCQCDNFSCVRHKGLLCGGNGDCDCGECVCRSGWTGEYCNCTTSTDSCVSEDGVLCSGRGDCVCGKCVCTNPGASGPTCERCPTCGDPCNSKRSCIECHLSAAGQAGEECVDKCKLAGATISEEEDFSKDGSVSCSLQGENECLITFLITTDNEGKTIIHSINEKDCPKPPNIPMIMLGVSLATLLIGVVLLCIWKLLVSFHDRKEVAKFSTSTFKNVTYKHREKQKVDLSTDC
B1: the “reduction of β6-bound ERK relative to wild type receptor” value is given as above 75%.
